{"source": "patent US20240024383A1", "about": "“ENGINEERED PROBIOTIC COMPOSITIONS AND USES THEREOF” (priority 2020, published 2024)", "molecules": {"B1": {"name": "TEM1 β-lactamase: Intact TEM1 β-lactamase with periplasmic localization in E. coli (protein, UniProt P62593 24-286, looked up)", "Beta-lactamase TEM": "HPETLVKVKDAEDQLGARVGYIELDLNSGKILESFRPEERFPMMSTFKVLLCGAVLSRVDAGQEQLGRRIHYSQNDLVEYSPVTEKHLTDGMTVRELCSAAITMSDNTAANLLLTTIGGPKELTAFLHNMGDHVTRLDRWEPELNEAIPNDERDTTMPAAMATTLRKLLTGELLTLASRQQLIDWMEADKVAGPLLRSALPAGWFIADKSGAGERGSRGIIAALGPDGKPSRIVVIYTTGSQATMDERNRQIAEIGASLIKHW"}, "B2": {"name": "β lactamase fragment (BLF) 1 of TEM1 β-lactamase, without SpyTag (protein)", "chain": "MHPETLVKVKDAEDQLGARVGYIELDLNSGKILESFRPEERFPMMSTFKVLLCGAVLSRIDAGQEQLGRRIHYSQNDLVEYSPVTEKHLTDGMTVRELCSAAITMSDNTAANLLLTTIGGPKELTAFLHNMGDHVTRLDRWEPELNEAIPNDERDTTTPVAMATTLRKLLTG"}, "B3": {"name": "ST-BLF-1: SpyTag fused to TEM1 β-lactamase fragment BLF1 with usp45 secretion signal (SEQ ID NO: 4) (protein)", "chain": "MKKKIISAILMSTVILSAAAPLSGVYAAHIVMVDAYKPTKGGGGSGGGGSMHPETLVKVKDAEDQLGARVGYIELDLNSGKILESFRPEERFPMMSTFKVLLCGAVLSRIDAGQEQLGRRIHYSQNDLVEYSPVTEKHLTDGMTVRELCSAAITMSDNTAANLLLTTIGGPKELTAFLHNMGDHVTRLDRWEPELNEAIPNDERDTTTPVAMATTLRKLLTG"}}, "key": {"[1]": {"system": "C. difficile", "test": "Mouse model for parenteral ampicillin-induced disruption of colonization resistance against C. difficile", "assay_type": "in vivo, C57BL/6 mice", "conditions": "single daily dose, 200 mg/kg intraperitoneal, 3 days, 5×10^3 spores 24 hours after last dose", "procedure": "FIGS. 7A-7C. Mouse model for parenteral ampicillin-induced dysbiosis and the disruption of colonization resistance against C. difficile. FIG. 7A. A 3-day intraperitoneal ampicillin administration regimen is evaluated for its effects in abolishing colonization resistance against 5×10^3 spores of C. difficile at 24 hours after the last ampicillin dose. C. difficile density in feces is evaluated 24 hours after the infection. FIG. 7B. […] FIG. 7C. Dose-dependency of single daily intraperitoneal ampicillin injections in the disruption of colonization resistance against C. difficile.\nL. lactis spTEM1 protects the diversity and composition of gut the microbiota in an ampicillin-induced dysbiosis murine model. To test the efficacy of L. lactis spTEM1 in preventing ampicillin-induced dysbiosis, a mouse model was developed that utilizes susceptibility to C. difficile infection as an endpoint indication of gut dysbiosis. […] Based on this antibiotic regimen, the inventors devised a probiotic intervention aimed at populating the mouse gut with L. lactis spTEM1 while ampicillin circulates in the body (FIG. 3A). […]\nC. difficile infection. […] The number of colony forming units (CFU) was counted using TCCFA plates supplemented with 50 μg/mL Erythromycin at 37° C. under anaerobic conditions, as previously reported.^26"}, "[2]": {"system": "E. coli", "test": "Cell density-dependent survival/growth on ampicillin, E. coli expressing spTEM1 elements", "assay_type": "cell-based, Escherichia coli", "description": "FIGS. 2A-2B. […] FIG. 2A. Cell density-dependent growth on ampicillin. β-lactamases in the periplasm of Gram-negative bacteria i.e. E. coli, confer selective advantage to single-cells. Survival to ampicillin is an emergent property of the of the L. lactis spTEM1 population and not of single cells. Diffusion from the cell surface precludes protection to the producer cell when the population density is low. FIG. 2B. Estimation of the ampicillin survival density threshold in prototypical Gram-negative and Gram-positive strains expressing elements of the spTEM1 system.\nThe spTEM1 β-lactamase system is not amenable to HGT. Stable acquisition of a new genetic trait by HGT requires both the physical mobilization of DNA into the recipient cell and that the expression of the newly obtained genetic material provides enough selective advantage to outcompete the rest of the population. While encoding the spTEM1 β-lactamase system in separate genetic loci reduces the likelihood of transfer to a single recipient cell, the scenario of simultaneous acquisition of the two β-lactamase fragments cannot be completely ruled out. The inventors investigated whether stable acquisition of the spTEM1 β-lactamase genes to a Gram-negative bacterium confers a fitness advantage in the presence of ampicillin.\nBacterial strains. […]"}, "[3]": {"biological_target": "T1, β lactamase fragment (BLF) 2 of TEM1 β-lactamase, without SpyCatcher", "T1 chain": "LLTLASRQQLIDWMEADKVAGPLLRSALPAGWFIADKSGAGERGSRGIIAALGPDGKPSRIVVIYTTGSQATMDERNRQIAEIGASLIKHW"}, "[4]": {"test": "Nitrocefin hydrolysis assay for β-lactamase activity in culture supernatants", "assay_type": "biochemical", "conditions": "0.1 mM nitrocefin, absorbance at 486 nm", "description": "A L. lactis strain was generated that is able to inactivate β-lactam antibiotics in its surroundings by secreting a split enzyme that is encoded in a two-gene biosynthesis pathway. By splitting β-lactam degradation into a genetically unlinked trait the selective advantage conferred upon a single locus was removed, thereby limiting the possible spread of the engineered trait in the population through a single HGT event. To achieve this, a heterodimeric version of the TEM1 β-lactamase (spTEM1) that regains its activity when reconstituted in the extracellular environment was generated.\nβ-lactamase assay. Nitrocefin (BioVision) was dissolved in DMSO to make a 1 mM stock. It was added to samples bacterial culture supernatant in a clear-bottom 96-well plate to a final concentration of 0.1 mM. The plate was placed in a spectrophotometer SpectraMaX™ M5 (Molecular Devices) to read absorbance at 486 nm over time."}}, "note": "Entries after “also recorded” stand apart in the source; their conditions may differ.", "data": [{"molecule": "CC1(C)S[C@@H]2[C@H](NC(=O)[C@H](N)c3ccccc3)C(=O)N2[C@H]1C(=O)O", "note": "[ampicillin]", "values": [{"measurement": "disruption of colonization resistance against C. difficile", "setting": "[1]", "result": "sufficient to abrogate colonization resistance; also recorded: enough to sensitize the mouse gut to robust C. difficile colonization"}]}, {"molecule": "B1", "values": [{"measurement": "growth in ampicillin as single colonies", "setting": "[2]", "result": "enables the growth in ampicillin as single colonies"}]}, {"molecule": "B2", "values": [{"measurement": "β-lactamase activity in culture supernatants (nitrocefin)", "setting": "[3]", "result": "slow in reconstituting and show minimal β-lactamase activity"}]}, {"molecule": "B3", "values": [{"measurement": "β-lactamase activity (nitrocefin hydrolysis)", "setting": "[4]", "result": "do not display β-lactamase activity"}]}]}
